# Data: the RNAGym collection of RNA variant scans (doi:10.7554/elife.80360)
# B1: HDV Ribozyme (parent)
# chain: GGCCGGCAUGGUCCCAGCCUCCUCGCUGGCGCCGGCUGGGCAACAUUCCGAGGGGACCGUCCCCUCGGUAAUGGCGAAUGGGACCCA
# Variants of: B1
# Experiment: self-cleavage, relative activity (ratio to wild type); higher = more cleavage; co-transcriptional
row,Variant,self-cleavage
1,C19A C75A,0.185
2,C19G C64G,0.113
3,C19G C64U,0.056
4,C19A G29C,0.0941
5,C19A G29A,0
6,C19G G55U,0.04
7,C19U U79C,0.0415
8,C19G G53A,0.041
9,C19G G53C,0.0852
10,C19G G53U,0.0542
11,C19U G67A,0.0739
12,C19G G80C,0.0773
13,C19G A71G,0.158
14,C19G A71U,0
15,U20A A83C,0
16,U20A A83U,0.0978
17,C19U C30A,0.0449
18,C19U C30G,0.0936
19,C19U G52C,0.326
20,U20A C48A,0.0573
21,U20A C66G,0.107
22,U20A C66A,0
23,C19G C30U,0.0462
24,C19A G39U,0.0639

row,Variant,self-cleavage
1,C19A G81C,0.0272
2,C19A U37A,0.0519
3,C19A U37G,0.151
4,C19U G82U,0.0702
5,C19G G81C,0.0462
6,C19G G81A,0.117
7,U20A C21U,0.0898
8,U20A C44U,0
9,U20A C44A,0.0573
10,U20A C44G,0.111
11,C19U A71C,0.0898
12,C19U A71G,0.104
13,C19U U47A,0.191
14,C19U U47C,0.111
15,C19G C32U,0.0302
16,C19U G53A,0.229
17,C19U G53C,0.0875
18,C19U G76U,0.288
19,C19U G76C,0.277
20,C19G A87C,0.0849
21,C19G A87U,0.0839
22,C19G A87G,0.16
23,C19U G29C,0.122
24,C19A G38U,0.0346

row,Variant,self-cleavage
1,C19U U72C,0.0354
2,C19G G82A,0.102
3,C19G G82U,0.0627
4,C19U U60G,0.182
5,C19U U60C,0.0906
6,C19U U60A,0.192
7,C19U G54C,0.2
8,C19U C49A,0.0378
9,U20A C63U,0.101
10,U20A C63A,0.0504
11,U20A A45C,0.0639
12,C19U G39U,0.0449
13,C19U G39A,0.0779
14,C19U C22G,0.0692
15,U20A C33G,0.151
16,C19U C62U,0.244
17,C19U C62A,0.142
18,C19A C62A,0.0536
19,C19G C58A,0.0256
20,C19G C58U,0.0272
21,C19G C63G,0.229
22,C19G C63A,0.0936
23,C19U A42U,0.035
24,C19A C85U,0.166

row,Variant,self-cleavage
1,C19G C21A,0.208
2,C19G C21G,0.0326
3,U20A C85A,0.26
4,C19A G73C,0.058
5,U20A G28A,0.145
6,U20A G28U,0.0386
7,U20A G28C,0.0573
8,C19U C75A,0.0665
9,C19U C75U,0.0329
10,C19A C64A,0.141
11,C19A C64G,0.111
12,C19A C64U,0.128
13,C19U G28C,0.0875
14,C19U G28U,0.172
15,C19A U72G,0.095
16,C19A U72C,0.0978
17,U20A A87C,0.0631
18,U20A A87G,0.0831
19,U20A A87U,0.0282
20,C19A G59C,0.04
21,C19G U47C,0.0852
22,C19G U47A,0.106
23,U20A C30A,0.0739
24,U20A C30U,0.0415

row,Variant,self-cleavage
1,C19A U46C,0.0665
2,U20A A71C,0.0554
3,U20A A71U,0.0504
4,C19A C61G,0.095
5,C19A C61U,0.0671
6,C19A U23A,0.0302
7,C19U G25A,0.0252
8,U20A C75U,0.0489
9,U20A C61U,0.208
10,U20A C61G,0.0536
11,C19G G76U,0.0791
12,C19U G50A,0.245
13,C19U G50C,0.332
14,U20A A42C,0.0594
15,U20A A42U,0
16,C19A G68U,0.178
17,C19A G68C,0.149
18,U20A A43G,0.0573
19,C19A G40C,0.0587
20,C19A G40U,0.0437
21,C19G,0.0688
22,C19U,0.152
23,C19U G80U,0.0642
24,C19U G80C,0.112

row,Variant,self-cleavage
1,C19U G68A,0.148
2,C19U G68C,0.148
3,C19U G68U,0.168
4,C19G C22A,0
5,C19G C22U,0.0804
6,C19G C22G,0
7,C19U U65C,0.154
8,C19U U65G,0.182
9,C19U U65A,0.0791
10,C19U U20G,0.0594
11,C19G G39A,0.032
12,C19G G39U,0.0707
13,C19A C86U,0.0674
14,C19A C86G,0.0548
15,C19A C86A,0.273
16,C19G A42C,0.0978
17,C19G A42U,0
18,C19A G25C,0.0386
19,C19A U27G,0.158
20,C19G C86U,0.26
21,C19U C44G,0.0519
22,C19G G29A,0.0378
23,C19G G29U,0
24,C19G G29C,0.201

row,Variant,self-cleavage
1,C19U C21G,0.0339
2,C19U A87G,0.107
3,C19U A87C,0.235
4,U20A C58G,0.158
5,U20A C58A,0.0615
6,C19A U69A,0.143
7,C19A U69G,0.12
8,C19U C26A,0.446
9,C19U C26G,0.356
10,C19G C61G,0.0378
11,C19G C61U,0.0707
12,U20A C57U,0.0707
13,U20A C57G,0
14,C19U A78C,0.172
15,C19U A78G,0.0405
16,C19U C41U,0.173
17,C19U C61G,0.176
18,C19U G55C,0.164
19,C19U G55A,0.225
20,C19G U79C,0.0264
21,C19G U79A,0
22,C19G G50A,0.073
23,C19G G50C,0.0528
24,C19G G50U,0.108

row,Variant,self-cleavage
1,C19G A56G,0.0639
2,C19G A56U,0.0573
3,U20A,0.0723
4,C19G A83U,0.0504
5,C19U C58G,0.0959
6,C19U C58A,0.086
7,C19U C58U,0.126
8,U20A A77G,0.0723
9,U20A A77C,0.151
10,C19U C84G,0.0332
11,C19A G55A,0.0906
12,C19G C84G,0.0941
13,C19U U27G,0.237
14,C19G G67U,0.058
15,C19G G67A,0.0779
16,C19G U23A,0
17,C19G U23G,0.0811
18,U20A C24G,0.0449
19,C19U G74A,0.0961
20,C19U G74C,0.126
21,C19A U79G,0.0923
22,C19A U79C,0.107
23,U20A A70C,0.104
24,U20A A70G,0.147

row,Variant,self-cleavage
1,U20A A70U,0.0615
2,C19G U72C,0.101
3,C19U U37G,0.0755
4,C19U U37A,0.0936
5,C19U U37C,0.185
6,C19U C64G,0.0923
7,C19U C64U,0.148
8,C19U C64A,0.0554
9,U20A C26U,0.158
10,U20A C26A,0.0594
11,C19A G80A,0.0329
12,C19A G31A,0.117
13,U20A C84U,0.0449
14,U20A C84G,0.196
15,C19U C33U,0.234
16,C19U C33G,0.0923
17,C19G G54A,0.116
18,C19G G54U,0.0594
19,U20A A51G,0
20,U20A A51C,0
21,U20A A51U,0.104
22,C19A G52A,0.0863
23,C19G C62U,0.116
24,C19G C62A,0.0264

row,Variant,self-cleavage
1,C19G A70G,0.104
2,C19G A70U,0.102
3,C19U G81C,0.101
4,C19U G81A,0
5,C19G C41A,0.157
6,C19G C41U,0.155
7,C19G G73U,0.0545
8,C19U C36G,0.0723
9,C19U C36A,0.0639
10,C19U U23A,0.129
11,C19G G68U,0.119
12,C19G C49A,0.0354
13,C19U A51G,0.194
14,C19G G28A,0.237
15,C19G U37C,0.0594
16,C19G G34U,0.095
17,C19G G40A,0.0573
18,C19G G40C,0.102
19,U20A C64U,0.138
20,C19A G54A,0.0536
21,C19G G74C,0.0665
22,C19G G74U,0.0601
23,C19U C24U,0.101
24,C19G C33U,0.151

row,Variant,self-cleavage
1,U20A G25C,0.151
2,U20A G25A,0.0852
3,U20A G25U,0.119
4,C19U C48A,0.117
5,C19U C48G,0.0594
6,C19U C48U,0.0978
7,C19A C63U,0.1
8,C19A C63G,0.256
9,C19G U27C,0.0875
10,C19U U46A,0.0875
11,C19A G28C,0.0462
12,C19G G25A,0.113
13,C19G G25C,0.156
14,U20A C41U,0
15,U20A C41A,0.0396
16,C19U U69A,0.212
17,C19U U69G,0.0692
18,C19U G38C,0.0875
19,C19U G38U,0
20,C19G A51C,0.0369
21,C19G A51G,0.0361
22,C19A G50U,0.254
23,C19A G50A,0.0231
24,C19U A56C,0.0936

row,Variant,self-cleavage
1,C19U A56G,0.119
2,C19G G59C,0.141
3,C19G G59U,0.04
4,C19G G59A,0.0542
5,C19G G35C,0.208
6,C19G G35U,0.119
7,C19U A83G,0.0985
8,C19U A83U,0.148
9,C19A G74C,0.125
10,C19A G74U,0.101
11,C19A G35C,0.125
12,C19U A45U,0.136
13,C19G C66A,0.108
14,C19G C66G,0.141
15,C19G A78G,0.0875
16,C19A G67C,0.0615
17,C19G C36G,0.0264
18,U20A C86A,0.0723
19,U20A C86G,0.166
20,U20A C86U,0.119
21,C19G A77C,0.111
22,C19G A77U,0.0437
23,C19G A77G,0.0426
24,C19U G34U,0.0755

row,Variant,self-cleavage
1,C19A G53C,0.23
2,C19A U60C,0.107
3,C19A U60A,0.141
4,C19A U60G,0.0361
5,U20A C62G,0.0639
6,C19G U65A,0.0354
7,C19G U65C,0
8,C19G U65G,0.111
9,C19A U20C,0
10,C19A G82C,0.133
11,C19A G82U,0.0898
12,U20A C49U,0.0665
13,C19U C32A,0.0361
14,C19U C32U,0.295
15,C19U C66G,0.155
16,C19A C66A,0.211
17,C19A C66G,0.115
18,C19G A43U,0.0594
19,C19G A43C,0.0652
20,C19G C75G,0.032
21,C19G A45C,0.0583
22,C19G A45U,0.0396
23,C19G G52A,0.0739
24,C19G G52C,0.121

row,Variant,self-cleavage
1,C19U A77U,0.107
2,U20A A78C,0.107
3,U20A A78U,0
4,U20A A78G,0
5,U20A C32A,0.0489
6,C19G C26U,0.249
7,C19G C57U,0.0528
8,C19G C57A,0.0256
9,C19U C63G,0.0707
10,C19U C63U,0.134
11,C19G C24G,0
12,C19G C24U,0.0339
13,C19G C24A,0.115
14,C19U G35C,0.0831
15,C19U G35A,0.234
16,C19U G40A,0.0944
17,C19U G40C,0.0923
18,C19G C85U,0
19,C19G G31C,0.104
20,C19G U20A,0.0314
21,C19G U20G,0.138
22,C19U C85U,0.22
